Target: T1, hRpn13 Pru (1-150) (human, UniProt Q16186 1-150)
T1 construct: hRpn13 (proteasome subunit, gene ADRM1), Pru domain, residues 1-150; printed MW 17017.3 g/mol; also called hRpn13 Pru domain
Test: 19F NMR of the competing small molecule XL44; 25 or 50 uM hRpn2 (940-953) added to preincubated 50 uM XL44 and equimolar hRpn13 Pru; NMR buffer (20 mM sodium phosphate, 50 mM NaCl, 2 mM DTT, 10% DMSO-d6, pH 6.5), 10 °C
Details: both partners purified

T1 sequence (Q16186 1-150): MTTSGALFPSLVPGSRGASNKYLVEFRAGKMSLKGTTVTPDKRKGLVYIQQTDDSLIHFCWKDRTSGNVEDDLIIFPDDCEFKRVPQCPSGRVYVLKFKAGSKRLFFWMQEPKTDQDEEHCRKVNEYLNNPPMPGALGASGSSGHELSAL

binding result: binds
B1: hRpn2 (940-953) (peptide, UniProt Q99460 940-953, looked up)
chain: QEPEPPEPFEYIDD
notes: hRpn2 (proteasome regulatory particle subunit), extreme C-terminus, residues 940-953; also called hRpn2 peptide; not shown: GST, N-terminal, cleaved

Source: publication PMC10954691, “A structure-based designed small molecule depletes hRpn13^Pru and a select group of KEN box proteins” (Nature Communications, 2024)
